In paper PMC12622308:

Target: KFERQ-PAmCherry-Flag
Assay: co-IP (IP: HA, IB: Flag), western blot quantification
Conditions: HEK293T SIRT2KD cells; parent: est. 1.0; read off a plot

ratio to parent: 1.6
Substance: HSC70-HA WT (from UniProt P11142) K557R
